Measured values from patent US20230416330A1, “Optimized GIP Peptide Analogues” (Antag Therapeutics ApS, priority 2019, published 2023).
Starred links: 1 amine or outer side, 2 acyl side, 3 side chain; linkers in the order of their positions; H or OH if unused. Residues, ends and D or L forms follow the SMILES beside them. Groups on a side chain read outwards from the residue. No end group written: not given here. *: point of attachment. C18 diacid = O=C(O)CCCCCCCCCCCCCCCCC(=O)*; C16 diacid = O=C(O)CCCCCCCCCCCCCCC(=O)*; γGlu = O=C(O)[C@H](CCC(=O)[*:2])N[*:1]; Glutaryl = O=C(CCCC(=O)[*:2])[*:1]; AEEA = NCCOCCOCC(=O)O

T1: human GIP receptor (Homo sapiens, UniProt P48546)
T1 construct: host or cells: HEK-293 cells, transient transfection (Lipofectamine 2000), cDNA in pCMV-Script vector
T1 sequence (P48546 22-466): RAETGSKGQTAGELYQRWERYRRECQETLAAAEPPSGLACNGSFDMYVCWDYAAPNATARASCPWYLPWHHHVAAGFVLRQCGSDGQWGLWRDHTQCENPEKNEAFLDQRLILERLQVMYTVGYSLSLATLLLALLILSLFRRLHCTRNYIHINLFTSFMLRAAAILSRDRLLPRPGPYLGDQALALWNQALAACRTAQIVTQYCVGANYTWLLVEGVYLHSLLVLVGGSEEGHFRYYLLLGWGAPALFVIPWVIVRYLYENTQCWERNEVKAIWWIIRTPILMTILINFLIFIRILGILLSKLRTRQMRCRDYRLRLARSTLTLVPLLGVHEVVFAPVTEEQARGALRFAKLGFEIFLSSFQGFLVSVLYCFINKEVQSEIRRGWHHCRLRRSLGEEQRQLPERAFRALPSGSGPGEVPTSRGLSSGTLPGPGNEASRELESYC

T2: human GIP receptor (human, UniProt P48546 22-466)
T2 sequence (looked up): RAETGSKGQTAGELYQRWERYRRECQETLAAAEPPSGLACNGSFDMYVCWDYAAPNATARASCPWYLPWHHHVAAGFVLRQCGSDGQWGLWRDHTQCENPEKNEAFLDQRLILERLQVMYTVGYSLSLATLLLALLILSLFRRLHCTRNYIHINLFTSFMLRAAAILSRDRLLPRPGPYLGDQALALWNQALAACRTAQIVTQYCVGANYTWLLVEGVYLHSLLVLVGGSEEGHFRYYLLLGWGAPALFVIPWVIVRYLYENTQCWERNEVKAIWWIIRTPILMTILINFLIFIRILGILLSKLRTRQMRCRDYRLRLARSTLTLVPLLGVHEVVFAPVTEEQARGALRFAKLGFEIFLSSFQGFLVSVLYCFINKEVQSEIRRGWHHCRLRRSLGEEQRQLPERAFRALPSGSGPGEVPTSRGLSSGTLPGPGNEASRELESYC

B1: AT158 (peptide)
peptide: EGTFISDYSIAMDKIK(C16 diacid)QQDFVNWLLAQK-NH2
modifications: N-terminus assumed
SMILES: CC[C@H](C)[C@H](NC(=O)[C@H](CO)NC(=O)[C@H](Cc1ccc(O)cc1)NC(=O)[C@H](CC(=O)O)NC(=O)[C@H](CO)NC(=O)[C@@H](NC(=O)[C@H](Cc1ccccc1)NC(=O)[C@@H](NC(=O)CNC(=O)[C@@H](N)CCC(=O)O)[C@@H](C)O)[C@@H](C)CC)C(=O)N[C@@H](C)C(=O)N[C@@H](CCSC)C(=O)N[C@@H](CC(=O)O)C(=O)N[C@@H](CCCCN)C(=O)N[C@H](C(=O)N[C@@H](CCCCNC(=O)CCCCCCCCCCCCCCC(=O)O)C(=O)N[C@@H](CCC(N)=O)C(=O)N[C@@H](CCC(N)=O)C(=O)N[C@@H](CC(=O)O)C(=O)N[C@@H](Cc1ccccc1)C(=O)N[C@H](C(=O)N[C@@H](CC(N)=O)C(=O)N[C@@H](Cc1c[nH]c2ccccc12)C(=O)N[C@@H](CC(C)C)C(=O)N[C@@H](CC(C)C)C(=O)N[C@@H](C)C(=O)N[C@@H](CCC(N)=O)C(=O)N[C@@H](CCCCN)C(N)=O)C(C)C)[C@@H](C)CC
B2: AT364 (peptide)
peptide: EGTFISDYSIAMDKIK(C16 diacid)QQDFVNWLLAQKPSSGAPPPS-OH
modifications: N-terminus assumed
SMILES: CC[C@H](C)[C@H](NC(=O)[C@H](CO)NC(=O)[C@H](Cc1ccc(O)cc1)NC(=O)[C@H](CC(=O)O)NC(=O)[C@H](CO)NC(=O)[C@@H](NC(=O)[C@H](Cc1ccccc1)NC(=O)[C@@H](NC(=O)CNC(=O)[C@@H](N)CCC(=O)O)[C@@H](C)O)[C@@H](C)CC)C(=O)N[C@@H](C)C(=O)N[C@@H](CCSC)C(=O)N[C@@H](CC(=O)O)C(=O)N[C@@H](CCCCN)C(=O)N[C@H](C(=O)N[C@@H](CCCCNC(=O)CCCCCCCCCCCCCCC(=O)O)C(=O)N[C@@H](CCC(N)=O)C(=O)N[C@@H](CCC(N)=O)C(=O)N[C@@H](CC(=O)O)C(=O)N[C@@H](Cc1ccccc1)C(=O)N[C@H](C(=O)N[C@@H](CC(N)=O)C(=O)N[C@@H](Cc1c[nH]c2ccccc12)C(=O)N[C@@H](CC(C)C)C(=O)N[C@@H](CC(C)C)C(=O)N[C@@H](C)C(=O)N[C@@H](CCC(N)=O)C(=O)N[C@@H](CCCCN)C(=O)N1CCC[C@H]1C(=O)N[C@@H](CO)C(=O)N[C@@H](CO)C(=O)NCC(=O)N[C@@H](C)C(=O)N1CCC[C@H]1C(=O)N1CCC[C@H]1C(=O)N1CCC[C@H]1C(=O)N[C@@H](CO)C(=O)O)C(C)C)[C@@H](C)CC
B3: AT437 (peptide)
peptide: SGTFISDYSIAMDKIK([AEEA-AEEA-γGlu-C18 diacid])QQDFVNWLLAQKPSSGAPPPS-OH
modifications: N-terminus assumed
SMILES: CC[C@H](C)[C@H](NC(=O)[C@H](CO)NC(=O)[C@H](Cc1ccc(O)cc1)NC(=O)[C@H](CC(=O)O)NC(=O)[C@H](CO)NC(=O)[C@@H](NC(=O)[C@H](Cc1ccccc1)NC(=O)[C@@H](NC(=O)CNC(=O)[C@@H](N)CO)[C@@H](C)O)[C@@H](C)CC)C(=O)N[C@@H](C)C(=O)N[C@@H](CCSC)C(=O)N[C@@H](CC(=O)O)C(=O)N[C@@H](CCCCN)C(=O)N[C@H](C(=O)N[C@@H](CCCCNC(=O)COCCOCCNC(=O)COCCOCCNC(=O)CC[C@H](NC(=O)CCCCCCCCCCCCCCCCC(=O)O)C(=O)O)C(=O)N[C@@H](CCC(N)=O)C(=O)N[C@@H](CCC(N)=O)C(=O)N[C@@H](CC(=O)O)C(=O)N[C@@H](Cc1ccccc1)C(=O)N[C@H](C(=O)N[C@@H](CC(N)=O)C(=O)N[C@@H](Cc1c[nH]c2ccccc12)C(=O)N[C@@H](CC(C)C)C(=O)N[C@@H](CC(C)C)C(=O)N[C@@H](C)C(=O)N[C@@H](CCC(N)=O)C(=O)N[C@@H](CCCCN)C(=O)N1CCC[C@H]1C(=O)N[C@@H](CO)C(=O)N[C@@H](CO)C(=O)NCC(=O)N[C@@H](C)C(=O)N1CCC[C@H]1C(=O)N1CCC[C@H]1C(=O)N1CCC[C@H]1C(=O)N[C@@H](CO)C(=O)O)C(C)C)[C@@H](C)CC
B4: AT482 (peptide)
peptide: EGTFISEYSIAMEKIK(C16 diacid)QQEFVQWLLAQK-NH2
modifications: N-terminus assumed
SMILES: CC[C@H](C)[C@H](NC(=O)[C@H](CO)NC(=O)[C@H](Cc1ccc(O)cc1)NC(=O)[C@H](CCC(=O)O)NC(=O)[C@H](CO)NC(=O)[C@@H](NC(=O)[C@H](Cc1ccccc1)NC(=O)[C@@H](NC(=O)CNC(=O)[C@@H](N)CCC(=O)O)[C@@H](C)O)[C@@H](C)CC)C(=O)N[C@@H](C)C(=O)N[C@@H](CCSC)C(=O)N[C@@H](CCC(=O)O)C(=O)N[C@@H](CCCCN)C(=O)N[C@H](C(=O)N[C@@H](CCCCNC(=O)CCCCCCCCCCCCCCC(=O)O)C(=O)N[C@@H](CCC(N)=O)C(=O)N[C@@H](CCC(N)=O)C(=O)N[C@@H](CCC(=O)O)C(=O)N[C@@H](Cc1ccccc1)C(=O)N[C@H](C(=O)N[C@@H](CCC(N)=O)C(=O)N[C@@H](Cc1c[nH]c2ccccc12)C(=O)N[C@@H](CC(C)C)C(=O)N[C@@H](CC(C)C)C(=O)N[C@@H](C)C(=O)N[C@@H](CCC(N)=O)C(=O)N[C@@H](CCCCN)C(N)=O)C(C)C)[C@@H](C)CC

Legend:
[1] = Physical stability: fibril formation in Thioflavin T (ThT) assay with agitation; assay type: physicochemical; conditions: TFA, 25° C., agitation
Outline: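 Read-out is continuous ThT fluorescence at 486 nm, with lag time taken where signal reaches 10% between pre- and post-transition baselines. Filtered samples (1, 5, 7.5 or 15 mg/ml; pH 7.4 phosphate buffer or NaOH-adjusted water) were stressed at 25° C. by orbital rotation at 300 rpm with one silica bead per well.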

[2] = Solubility by visual inspection of peptide solutions; assay type: physicochemical; conditions: TFA
Outline: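 Solubility scored by eye: clear, colorless appearance after gentle mixing. Samples prepared at 1, 5, 7.5 or 15 mg/ml in either pH 7.4 water (NaOH-adjusted) or 50 mM sodium phosphate buffer, pH 7.4.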

[3] = biological target: T1, human GIP receptor; experiment: cAMP assay Alternative 3 (Schild analysis), antagonist potency pKb; assay type: cell-based
Experimental: Antagonist potency was also determined by Schild analysis. GIP1-42 EC50 was measured in the absence of antagonist and EC50′ was measured in the presence of increasing concentrations of antagonist. These values were used to calculate a dose ratio (DR=EC50′/EC50) for each antagonist concentration, and log(DR-1) was plotted against log(antagonist concentration).
The in vitro functional assessment of compounds towards human GIP receptor was determined in HEK-293 cells transiently expressing the receptor. On the day of the assay, cells were resuspended in HBSS buffer (Gibco, 14025-50) supplemented with […] (Gibco, 15630-106), 0.1% Pluronic F-68 (Gibco, 24040-032) and 0.1% casein (Sigma, C4765), and plated in 384-well plates at a density of 3500 cells/well. […] The intracellular cAMP was quantitatively determined using the CisBio cAMP Dynamic 2 HTRF Assay Kit. […]
The cAMP-d2 conjugate and the antibody anti-cAMP-Cryptate, both diluted in lysis buffer provided in the kit, were added to the cells according to the manufacturer's protocol. The resulting competitive assay was incubated for 60 minutes at room temperature, and the signal was detected by using a PerkinElmer Envision® instrument with excitation at 320 nm and emission at 665 nm and 620 nm. […]

[4] = biological target: T2, human GIP receptor; experiment: cell-based or functional assay
[5] = biological target: T2, human GIP receptor; experiment: cell-based or functional assay; remark: listed apart in the source

Row | Molecule | Avr lag time (h) ([1]; 1 mg/ml, Phosphate (7.4)) | Avr lag time (h) ([1]; 5 mg/ml, MilliQ) | Visual appearance ([2]; 1 mg/ml, Phosphate (7.4)) | Visual appearance ([2]; 5 mg/ml, MilliQ) | Kb [3] [nM] | cAMP antagonism nM (IC50, CisBio assay) [4] [nM] | cAMP antagonism pIC50 (CisBio assay) [4] | nM (Kb, Schild analysis, cAMP) [5] [nM] | pKb (Schild analysis, cAMP) [5]
1 | CC[C@H](C)[C@H](NC(=O)[C@H](CO)NC(=O)[C@H](Cc1ccc(O)cc1)NC(=O)[C@H](CC(=O)O)NC(=O)[C@H](CO)NC(=O)[C@@H](NC(=O)[C@H](Cc1ccccc1)NC(=O)[C@@H](NC(=O)CNC(=O)CCCC(=O)O)[C@@H](C)O)[C@@H](C)CC)C(=O)N[C@@H](C)C(=O)N[C@@H](CCSC)C(=O)N[C@@H](CC(=O)O)C(=O)N[C@@H](CCCCN)C(=O)N[C@H](C(=O)N[C@@H](CCCCNC(=O)CCCCCCCCCCCCCCC(=O)O)C(=O)N[C@@H](CCC(N)=O)C(=O)N[C@@H](CCC(N)=O)C(=O)N[C@@H](CC(=O)O)C(=O)N[C@@H](Cc1ccccc1)C(=O)N[C@H](C(=O)N[C@@H](CCC(=O)O)C(=O)N[C@@H](Cc1c[nH]c2ccccc12)C(=O)N[C@@H](CC(C)C)C(=O)N[C@@H](CC(C)C)C(=O)N[C@@H](C)C(=O)N[C@@H](CCC(N)=O)C(=O)N[C@@H](CCCCN)C(=O)N1CCC[C@H]1C(=O)N[C@@H](CO)C(=O)N[C@@H](CO)C(=O)NCC(=O)N[C@@H](C)C(=O)N1CCC[C@H]1C(=O)N1CCC[C@H]1C(=O)N1CCC[C@H]1C(=O)N[C@@H](CO)C(=O)O)C(C)C)[C@@H](C)CC [AT762] (Glutaryl-GTFISDYSIAMDKIK(C16 diacid)QQDFVEWLLAQKPSSGAPPPS-OH) | fnd (Fnd = fibrils not detected within experiment time (96 hours) with agitation.) | fnd (Fnd = fibrils not detected within experiment time (96 hours) with agitation.) | Clear | Clear | 0.15 | – | – | – | –
2 | B1 | – | – | – | – | – | 14.3 | 7.8 | 3.7 | 8.4
3 | B2 | – | – | – | – | – | 1.12 | 9 | 0.77 | 9.1
4 | B3 | – | – | – | – | – | 35.5 | 7.5 | – | –
5 | B4 | – | – | – | – | – | 14.1 | 7.9 | – | –
6 | EGTFISDYSIAMDKIHQQDFVNWLLAQK [GIP(3-30)] | – | – | – | – | – | 33.8 | 7.5 | 3.5 | 8.5
